This note sets out measurements from article PMC9365158 (2022).

One assay concerns the target RBD-mFc (SARS-CoV-2, UniProt P0DTC2). In words: BLI. (BLI is a label-free optical method that tracks binding on a fibre tip over time.)
For a further assay, the target named is S1-hFc (SARS-CoV-2). In words: BLI.

B1: RBD-1-2G(NCATS-BL8125) (VHH)
VHH: EVQLVESGGGLVQPGGSLRLSCAASGFSSIVYMGWFRQAPGKGRELVAAIDASGSTTNYPDSVEGRFTISRDNAKRMVYLQMNSLRAEDTAVYYCAIAYFTSPEYVVSQGWGQGTQVTVSS
By koff is commonly meant a measure of how fast the partners let go of each other. Low values mean slow dissociation, high ones fast dissociation. As for B1, the results for the koff in the assay with RBD-mFc and with S1-hFc were 0.00024 s⁻¹ and 0.0002 s⁻¹, respectively.
